Test results taken from patent US20240084003A1 (SIMCERE ZAIMING PHARMACEUTICAL, published 2024).

T1: monkey CD22 (full length, on HEK293T cells) (monkey)
T1 construct: NCBI XP_014979161.2; also called HEK293T-monkey CD22; HEK293T cells overexpressing monkey CD22
T1 chain: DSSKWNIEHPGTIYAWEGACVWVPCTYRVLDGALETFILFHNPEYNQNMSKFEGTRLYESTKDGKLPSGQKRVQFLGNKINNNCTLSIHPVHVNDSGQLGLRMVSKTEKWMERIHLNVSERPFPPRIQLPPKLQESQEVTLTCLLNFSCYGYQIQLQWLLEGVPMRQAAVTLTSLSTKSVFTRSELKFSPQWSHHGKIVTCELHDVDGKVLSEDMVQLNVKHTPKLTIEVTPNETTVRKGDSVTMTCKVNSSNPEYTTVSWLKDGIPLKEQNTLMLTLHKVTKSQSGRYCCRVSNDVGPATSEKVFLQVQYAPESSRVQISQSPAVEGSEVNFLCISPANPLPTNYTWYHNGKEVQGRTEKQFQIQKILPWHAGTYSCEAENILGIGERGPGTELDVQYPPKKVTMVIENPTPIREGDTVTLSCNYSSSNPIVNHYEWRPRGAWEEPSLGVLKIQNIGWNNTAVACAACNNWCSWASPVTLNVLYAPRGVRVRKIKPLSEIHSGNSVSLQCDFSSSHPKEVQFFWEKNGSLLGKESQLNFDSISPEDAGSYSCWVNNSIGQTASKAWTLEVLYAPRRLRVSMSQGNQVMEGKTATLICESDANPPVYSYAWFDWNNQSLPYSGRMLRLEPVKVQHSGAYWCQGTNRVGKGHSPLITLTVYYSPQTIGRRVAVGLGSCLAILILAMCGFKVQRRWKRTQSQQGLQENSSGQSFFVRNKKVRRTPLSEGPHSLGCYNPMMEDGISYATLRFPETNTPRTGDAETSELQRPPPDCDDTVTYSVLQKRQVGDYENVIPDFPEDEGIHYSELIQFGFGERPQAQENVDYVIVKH


Legend:
[1] = molecular target: T1, monkey CD22 (full length, on HEK293T …); test: FACS, HEK293T-monkey CD22 cells (293T as parent cells)
From the text: The required cells were scale-up cultured in a T-75 cell culture flask to the logarithmic growth phase. For the adherent cell CHO-K1, the medium was aspirated, the cells were washed 2 times with PBS buffer, and then digested with trypsin. After the digestion was terminated, the cells were washed 2 times with PBS buffer. For suspension cell Raji, the medium supernatant was directly centrifuged and discarded, and the cell pellet was washed 2 times with PBS. After counting the cells in the previous step, the cell pellet was resuspended with [PBS+2% (w/w) BSA] blocking solution to 2×10⁶ cells/ml, and added to a 96-well FACS reaction plate at 50 μl/well, and then the chimeric antibody test sample was added at 50 μl/well, and incubated on ice for 2 hours. The mixture was centrifuged and washed 3 times with PBS buffer, Alexa Flour 488-labeled secondary antibody (purchased from Invitrogen, catalog number: A-11013) was added at 50 μl/well, and incubated on ice for 1 hour. The obtained mixture was centrifuged and washed 5 times with PBS, and FACS (FACS Canto™, purchased from BD Company) was used for detection and result analysis. Data analysis was performed by software (CellQuest) to obtain the mean fluorescence density (MFI)of the cells. And then software (GraphPad Prism8) was used for analysis, data fitting, and EC50 value calculation. […] The same method was used to detect the binding of the chimeric antibodies to endogenous CD22-negative cell MoLT4 cells (purchased from ATCC, CRL-1582) and CHO-K1 cells.
HEK293T-monkey CD22 cells were subjected to FACS detection and data analysis according to the method in Example 5.2.

[2] = molecular target: T1, monkey CD22 (full length, on HEK293T …); test: FACS on HEK293T-monkey CD22 cells
From the text: The required cells were scale-up cultured in a T-75 cell culture flask to the logarithmic growth phase. For the adherent cell CHO-K1, the medium was aspirated, the cells were washed 2 times with PBS buffer, and then digested with trypsin. After the digestion was terminated, the cells were washed 2 times with PBS buffer. For suspension cell Raji, the medium supernatant was directly centrifuged and discarded, and the cell pellet was washed 2 times with PBS. After counting the cells in the previous step, the cell pellet was resuspended with [PBS+2% (w/w) BSA] blocking solution to 2×10⁶ cells/ml, and added to a 96-well FACS reaction plate at 50 μl/well, and then the chimeric antibody test sample was added at 50 μl/well, and incubated on ice for 2 hours. The mixture was centrifuged and washed 3 times with PBS buffer, Alexa Flour 488-labeled secondary antibody (purchased from Invitrogen, catalog number: A-11013) was added at 50 μl/well, and incubated on ice for 1 hour. The obtained mixture was centrifuged and washed 5 times with PBS, and FACS (FACS Canto™, purchased from BD Company) was used for detection and result analysis. Data analysis was performed by software (CellQuest) to obtain the mean fluorescence density (MFI)of the cells. And then software (GraphPad Prism8) was used for analysis, data fitting, and EC50 value calculation. […]

| Binder | binding result [1] | binding result [2] |
| --- | --- | --- |
| F2.70.2 (antibody, human IgG1, lambda, V domains shown, Human-murine chimeric IgG1, lambda) VH: EVQLVESGGGLVKPGGSLKLSCAASGFTFSDYGMNWFRQAPEKGLEWVAYISRGSHTIYYADTVKGRFTISRDNAKNTLFLQMTSLRSNDTAMYYCVRMAGYYAMDYWGQGTSVTVSS VL: QLVLTQSSSASFSLGASAKLTCTLSSQHSSYIIEWYQQQPLKPPKYVMELKKDGSHSTGDGIPDRFSGSSSGADRYLSISNIQPEDEAIYICGVGDTIKEQFVYVFGGGTKVTVLG | no binding (tested: 10 nM) | – |
| F2.180.16 (antibody, human IgG1, lambda, V domains shown, Human-murine chimeric IgG1, lambda) VH: EVKLVESGGGLVLPGGSLKISCAASGFTFSDYYMYWIRQTPDKRLEWVAYISNTGYSTFYPDSVKGRFTVSRDNAKNTLYLQMSRLQSEDTAMYYCARHGILYAMDYWGQGTSVTVSS VL: QPVLTQSSSASFSLGASAKLTCTLSSQYSTYTIGWYQQQPLKPPKYVMELKHDGSRHTGDGIPDRFSGSSSGADRYLSISNIQPEDEATYICGVGDTIKEQFMYVFGGGTKVTVLG | no binding (tested: 10 nM) | – |
| F2.104.10 (antibody, human IgG1, lambda, V domains shown, Human-murine chimeric IgG1, lambda) VH: EVQLVESGGGFVKPGGSLKLSCAASGFTFSDYGMNWFRQAPEKGLEWVAYISRGSHTIYYADTVKGRFTISRDNAENTLFLQMTSLRSNDTAMYYCVRMAGYYAMDYWGQGTSLTVSS VL: QLVLTQSSSASFSLGASAKLTCTLSSQHSSYIIEWYQQQPLKPPKYVMEVKKDGSHSTGDGIPDRFSGSSSGADRYLSISNIQSEDEAIYICGVGDTIKEQFVYVFGGGTKVTVLG | no binding (tested: 10 nM) | – |
| F2.343.16 (antibody, human IgG1, lambda, V domains shown, Human-murine chimeric IgG1, lambda) VH: QVQLKQSGPGLVQPSQSLSITCTVSGFSLTGYGVQWVRQSPGKGLEWLGVIWGGGGTDYNAAFISRLNIIKDNSKSQVFFKMNSLQADDTAIYYCARYSKYGHFDVWGTGTAVTVSS VL: QAVVTQESALTTSPGETVTLTCRSSTGAVTTSNYANWVQEKPDHLFTGLIGGTYNRVPGVPARFSGSLIGDKAALTITGAQTEDEAIYFCALWYSNHFWVFGGGTKLTVLG | – | no binding |
| F1.245.2 (antibody, human IgG1, kappa, V domains shown, Human-murine chimeric IgG1, kappa) VH: EVQLQQSGAELVKPGASVKLSCTGSGFNIKDYYIHWVKQRTEQGLEWMGRIDPEDGETEYAPKFQDEATITSDTSSNTAYLQLSSLTYEDTAVYYCAREAAGYFYRGSSYGYFDVWGTGTTVTVSS VL: DFQMTQTTSFLSASLGDRVTISCSASQDISNYLNWYQQKPDGTVKLLIYYTSSLHSGVPSRFSGSGSGTDYSLTISNLEPEDIATYYCQQYSMLPYTFGGGTKLEMER | no binding (tested: 10 nM) | – |

Results, then the binder that gave them:

| binding result [1] | binding result [2] | Binder |
| --- | --- | --- |
| no binding (tested: 10 nM) | – | F1.257.3 (antibody, human IgG1, kappa, V domains shown, Human-murine chimeric IgG1, kappa) VH: QVQLQQSGPELARPGASVKLSCKASGYTFTSYGISWVKQRTGQDLEWIGEIYPKLGTTYYNEKFKDKATLTTDRSSSTAYMALRSLTSEDSAVYFCACPHYYATRGGDYWGQGTTLTVSS VL: EIVLTQSPATLSVTPGDSVTFSCRASQSISNHLHWYQQKSHESPRLLIRYASQSISGIPSRFSGSGSGTDFTLSLSSVETEDFGVYFCQQSHSWPYTFGGGTKLEIAR |
| no binding (tested: 10 nM) | – | F1.60.9 (antibody, human IgG1, kappa, V domains shown, Human-murine chimeric IgG1, kappa) VH: QVQLKESGPGLVAPSQSLSITCTVSGLSLNNYGVSWVRQPPGKGLEWLGVIWGDGSTNYHSALISRLSISKDNSKSQVFLKLNSLHTDDTATYYCAINWGDYWGQGTTLIVSS VL: DIKMTQSPSSMNASLGERVTITCKASQDINSYLSWFQQKPGKSPKILIYRANRLIDGVPSRFSGSGSGQDYSLTISSLEYEDMGIYYCLQYGVFPLTFGAGTKLELKR |
| – | no binding | F1.280.1 (antibody, human IgG1, kappa, V domains shown, Human-murine chimeric IgG1, kappa) VH: QIQLVQSGPELKKPGETVKISCKASGYTFTTYGMSWVKQTPGKGLTWMGWINTDSGVPTYADDFKRRFAFSLEASATTAYLQINNLKNEDTATYFCARGGPDYWGQGTTLTVSS VL: DILLTQSPATLSVTPGETVSLSCRASQSIYKNLHWYHQKSHRSPRLLIKYASDSISGIPSRFTGSGSGTNFTLSINSVKPEDEGIYYCLQGYIVPLTFGAGTKLELKR |
